Results as given in a protein production outcome set (Wang et al. 2014).

Assay: label from the status in PepcDB records
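Note: failed if final PepcDB status was selected cloned or expressed and not failed if soluble or beyond.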

| Sequence | protein production |
| --- | --- |
| MTPGGLFLPYHSLPQPDFLASCPTRHLKLCQCPGILAENPHQFSPTFPPGKGSCQHGALPGQVSLKEAAHTEMSLSGQDLFPSPAHPPLQPFWLPFSLCLSTPFLVADNELRLPKGQICPLHVFVLANRVVLKLCANSVWEHSKGIT | failed |
| MDLLIALLPALFWGSVVLINVLVGGGPYNQIRGTTLGTLIIGIILLLTGNAKFDDLAVIIVGLISGAFWALGQGYQLKSISLIGVSKTMPISTGLQLVGTTLFSAIFLGEWSTGIQVTLGLVAMVLLVIGIALTSIKGKNEASGGNNKFGKAIPILIISTVGYVVYVVVAQIFGVDGMNALFFQSIGMAIGGLILSAKHETSVKSTMWNIIPGVIWGIGNLFMFYSQPKVGVATSFSFSQLLVIVSTLGGIFLLGERKDKRQMIGIWAGIVLIIIAAFILGNLKG | failed |
| MKRFARKETIYLRGEEARTLYRLEEGLVRVVELLPDGRLITLRHVLPGDYFGEEALEGKAYRYTAEAMTEAVVQGLEPRAMDHEALHRVARNLARQMRRVQAYEAHLQTGELRARIARYLLFLADTPLSARDRQGIYVTVSHEEIADATASIRESVSKVLADLRREGLIATAYRRVYLLDLAALEREAGSALEAA | not failed |
| MELRPSGDSGSSDVDAEISDGFSPLDTSHRDVADEGSLLRRAEMYQDYMKQVPIPTNRGSLIPFTSWVGLSISMKQLYGQPLHYLTNVLLQRWDQSRFGTDSEEQRLDSIIHPTKAEATIWLVEEIHRLTPSHLHMALLWRSDPMYHSFIDPIFPEK | not failed |
| MNTPLRRVAIAVMVMVVALLANATYVQVIKADNLRADPRNSRVLLDEYSRQRGQISAAGQVLAASVPTDDRYKYLRTYPPNPAAPSSPLANAPVTGFYSMQYGSTGLERSEDPVLNGSDNRLFGRRFFDLVSGRDPRGGNVVTTINPVMQQVAYDQLTAKGYTGSVVAIEPSTGRILTMVSTPSYDPNSLASHDGTETTQAWEALNADPEKPLINRAVSQTYPPGSTFKVVVTAAALAAGTTPDTQLTAAPQITLPGTSTTLENYNGSTCGGAPTASLREAFARSCNTAFVELGVKTGTDAVSDQSSALGIGGQMPGVPFPVADSTIGSIPDDAALGQSSIGQRDVALTPLQNAMIAATVANGGVRMQPQLVSELQGPDLSNLATTNPVSEGQAMSSQVAATLTDLMIGSENNTSGEGKIPGVQIASKTGTAEHGTDPRNTPPHAWYIGFAPAQNPTVAIAVIVEDGGDRALAATGGSVAAPIGRAVIAAGLQGG | failed |
| MKQVNVDVAVIGGGTAGLGSYRAAKAHTDSVVMIEGGPYGTTCARVGCMPSKLLIAAAESVHQIEKAPKFGIHPQGEIVINGREVMERVKFERDRFVGFVLEGVDEIPAEDKISGYAKFLDDNTLQVDDHTIINAKRIVIATGSRPAYPAVWNELGDRLIINDDVFNWDDLPKSVAVFGPGVIGLELGQALHRLGVETKLFGLGGQVGPVTDPEVMAYANKAFNEEFYLDADVKVESMKRITTESGEERVEIQFINKQGELETNIVEYVLAATGRRPNTDKLGLENTSIELDERGVPTADFYTLQTSLPTVFIAGDASNQLPLLHEAADQARIAGDNAGRFPEIRAGLRRSKISAVFSDPQIAMVGETYKEITTRLGTCGCFATGEVSFENQGRSRVMLRNKGILHVYGEQGTGRFLGAEMMGPNAEHLAHLLAWAHQNKMTVSEMLDMPFYHPVIEEGVRTALRDLNAKLHLGPEMIKHCMDCGPGC | failed |
| MKTLKVYIPGIKFPSISVTGNYCALNCAHCGRHYLEGMKKITRLNLVDKCVEMEKEGYVGCLLSGGMDSRLKVPLDKFKDEIREIKEKTRLKINAHVGFIDEDDLEWLKYIDVVSLDFVGDNEVIKRVYKIDKTVNDYLKILDILTKERIKVAPHITIGLDFGRIHWEYEAIDLLSEYPIDVLVLNILIPTPGTEMENVKVSMEEALNVVRYAREEFKGELSIGCMRPFGRWREEFDKRAILIGVDRITNPPRKVIEWAKQFRKVEIHFECCVI | failed |
| MEHKIVHVGDIPVANDKPFTLFAGMNVLESRDLAMQICEHYVKVTDKLGIPYVFKASFDKANRSSVHSYRGPGLEEGMKIFQELKETFGVKIITDVHTEAQAQPVADVVDVIQLPAFLARQTDLVEAMAKTGAVINVKKPQFMSPGQVGNIVEKFAECGNDKVILCERGSCHGYDNLVVDMLGFGVMKQASNGSPIIFDVTHSLQMRDPSGAASGGRREQTVELAKAGLATGIAGLFIEAHPNPDKARCDGPSALPLDKLEPFLAQMKALDDLIKSFAHIDIR | not failed |
| MTAVFRNTVLVRFKHCDAAGIVFYPRYFEMLNDFIEDWFAQALDWPFDAMHGAGQAGVPTADLHCRFVAPSRLGETLTRELRVVKLGQSSFTVQVRFMGPDSGLRLEVTQRLVCVDTDKIAPRPLPDPVRQAMATYVDETLAATGSPGL | not failed |
| METPKGTIIFTTVGRTHYGFDVFSLNIATSVERRLTDGVSVNFNAQFVNDKSDDVVFVSERNGSARIYKTRSGISKPEQIPGAPESYFHDRPIITQNNRLYFISAHEQPDRYFKNWSALYTVELNSAKREVTRVTPPDTADFSPAVSQSGDFLAVASYGTRSWGGEFHEINTDITVFKASKPETRVVICERGGWPTWSGDSTVFFHHQADDGWWSIFRVDIPENFTEYTDFPITPIRVTPSGLHCFTPAAFRDGKRIALATRRRGVNHRHIEIYDLENTTFQPVTESLNPSFHHYNPFVSPDSEFLGYHRFRGESTQGESIVPNIESIVSPIKTLRLLRINGSFPSSSPNGDLIALNSDFDINGGIKVSKSDGSKRWTLIKDRTAFYNSWSPTERHVIYTSLGPIFSPARIAVQIARIKFDPSDLTADKEDLPCDVKILTLENTGNNAFPSCSPDGKSIVFRSGRSGHKNLYIVDAVNGESNGGGIRRLTDGPWIDTMPCWSPKGDLIGFSSNRHNPENTAVFGAYVVRPDGTGLRRIQISGPEGSEEAARERVNHVSFNKDGDWLVFAANLSGVTAEPVTMPNQFQPYGDLYVVKLDGTGLRRLTWNGYEDGTPTWHTADELDLSQLNLNGQDGDKLEGQFEEPLWISCDI | failed |
| MSSSNQDISIENTDLLTEISVAYYQDGATQEEISRKFAISRAKVGRMLKQARDEGIVEITVKYHPVFSAKIEQRLIERFGVKRALVALDQPNEEAQRLQVSGLVSNYLTSTLKNGMVVTVGQGRNVSSVAHHIGVITPRDCKFVCGIGGIHPRGGMYNADHICRQLAKKYGGTSETLYAPAYAENREQKMAFMQNATVKQTLDLARKADVALVGIGDMSENSYMVDLGWFTPDEVVQSRLKQGVVGDFAGYDFFDIHGNVANTVMSDRVIGLGIEEFRPIAEVIAIAAENSKPLALLGALRTGAIDVIATSVSNALTVLNLDEQMHGNAASES | failed |
| MSLEEWIKADSLEKADEYHKRYNYAVTNPVRRKILRMLDKGRSEEEIMQTLSLSKKQLDYHLKVLEAGFCIERVGERWVVTDAGKIVDKIRG | not failed |
| MVRSCAPHKRKAGRRARLAFGALASHGARENTEVPMRYVLILLLALFGYLLFWPIPVAPVAYHPPETPGFTGDFAENRVLDRAEFVTLPDGEIGPEDLAVMPDGTVYTTSLAGNLYRIDGAVPQLVDRLGGRPLGLKAGPDGALYIADSFRGILRWTAPGEVETVVDQIDGAPVIYANQLDLGRDGTIYFSNSTDRFDPRTLGGTKPTSVMTVWEQSDTGYVARRTPDGRVEKIATGFVYTNGVALSPDEDFLLINETGRARVHRLWLTGDKAGQSEVFLDNLPGYPDNIEAQGDGTYWLAFASPRVPAEALMPYPFLRKVVWRLGPKVRPAPIHRGMLIQFDGTGRILRTVQDPDGRLGITTGGKQVGARFYVMTLDSPGFARMDSADLR | failed |
| MDSGQIILNLVIIVITFFVAAFFVACEFALVQTRPSALEEEQKKRDKPSKRIATSLHMVRNLNEYLSTTQVGVSLAGIILGWIGEQTTEHFVLDFLSLFNLSVSTAVLRGISIVIGVFLLTYLEVVLTEIVPKNIAIDMPLKVMAVITTPLRWFHVMFYPFVWLLNVSSAGVVKMLGIPVANEDNDVYSQAEILNLSRNAVTGGELERNDYLYMERAFEFNDKIAKDIMIDRTQLVVIDINDTVKQAIRVYLQKRFSRLPVVANNDKDKILGYVYNYDLIRQGEVDDDIRVNKLLRNIITIPETTPIQAILQKMIDKQTPIVVVVDEYGGTSGIVTDKDIYEELFGTVNDEIDNVSNEYIEKQADGTYRISGKMTIYDFERYFKTDLQEFEDSDVVTLTGYILDNFPKIQAGDTIQIGNFNFKALDFENAYINWFEVSAQRDSTPDDHNDDQTQD | failed |
| ESYWRSRMIDAVTSDEDKVAPVYKLEEICDLLRSSHVSIVKEFSEFILKRLDNKSPIVKQKALRLIKYAVGKSGSEFRREMQRNSVAVRNLFHYKGHPDPLKGDALNKAVRETAHETISAIFSEENG | not failed |
